Data: US10889629B2, “Transfected T-cells and T-cell receptors for use in immunotherapy against cancers” (IMMATICS BIOTECHNOLOGIES GMBH, priority 2016, dated 2021)
“Also recorded” adds a separate entry of the source.

Columns and labels:
[1] = tested on: HLA-A*0201-positive PBMCs and HLA-A*0201/Kb transgenic mice; settings: in vitro from PBMCs and in HLA-A*0201/Kb transgenic mice; cited from earlier work
HLA-A*0201 molecule = HLA-A*0201 molecule (Homo sapiens, UniProt P04439, D140Y/D185E/D98H/E176V/E277Q/G131W/G231S/I119V/I121R/I166T/I218V/L300P/L318F/N151K/N90K/P208A/P217A/Q86G/Q94H/R138H/R169H/T345S); settings: cited from earlier work
[2] = tested on: HLA-A*02 positive cell types from healthy tissues; experiment: Safety: IFN-γ release upon co-culture with primary and iPSC-derived cell types from healthy tissues; assay type: cell-based, human; settings: E:T ratio 1:1, 20 h, ELISA, normalized
From the text: FIG. 13 T cells transfected with RNA coding for TCR R7P1 D5, R10P2G12, R20P1H7, mock or the control TCR 1G4 (SEQ ID NO:X) were co-cultured with different primary human healthy tissue cells (see table 13 for abbreviations), the target negative tumor cell line MCF-7 and the MAGEA4- and NY-ESO1-positive cell lines A-375 and NCI-H1755. TCRs R7P1D5, R10P2G12, R20P1H7 and 1G4 expression in T cells was achieved by electroporation using an RNA vector. […] E:T ratio 1:1, 20,000 cells each, mean of IFN-γ release after 20 h from replicates is shown as measured by ELISA. Error bars indicate standard deviations. Results were normalized by subtraction of IFN-γ release from TCR-transfected T cells only and IFN-γ release due to co-culture of Target cells and T cells not expressing TCR of interest.
(§1) TCRs of interest were expressed in human T cells via RNA electroporation and the T cells were assessed for IFN-γ release after co-culture with different target cells, such as T2 cells loaded with different peptides as well as tumor cell lines and primary cells from healthy tissues. T-cell activation data are shown in absolute IFN-γ levels or a normalized way as indicated below.
(§2) Efficacy of CD8+ T cells expressing TCRs R7P1 D5, R10P2G12 and R20P1H7 was determined by T cell activation studies (IFN-γ release) using different tumor cell lines as target cells. The characterization of the safety profile of TCRs of interest was approached by testing the potential activation of TCR-expressing T cells upon co-culture with isolated primary cell types from healthy tissues and induced pluripotent stem cell (iPSC)-derived cell types from HLA-A*02-positive donors (Table 13). Cell types were selected in a manner to cover most of the critical organs like e.g. brain, heart and liver and different cell types as epithelium, endothelium or smooth muscle. Tumor cell lines were analyzed side-by-side as positive and negative controls.
(§3) Normalization Method for IFNγ Release: Meannorm(TCRoi;co)=[mean(TCRoi;co)−mean(TCRoi;effector only)]−[mean(mock;co)−mean(mock;effector only)]
The respective CVnorm was calculated: CVnorm(TCRoi;co)=[CV(TCRoi;co)^2+CV(TCRoi;effector only)^2+CV(mock;co)^2+CV(mock;effector only)^2]^[½] TCRoi=effector cells expressing TCR of interest Mock=effector cells without exogenous TCR expression Co=effector cells co-cultured with target cells Effector only=effector cells not co-cultured Mean(norm)=mean IFNγ release (normalized) CV(norm)=coefficient of variation (normalized) Results: […]

MHC/NYESO1-001 complex = experiment: Activation of 1G4-transformed CD8+ T-cells by NYESO1-001-loaded target cells; assay type: cell-based, human
[3] = tested on: NYESO1 expressing HLA-A*02 positive tumor cell lines; experiment: IFN-γ release of 1G4-expressing CD8+ T cells with NYESO1 expressing tumor cell lines; assay type: cell-based, human; settings: Example 6
Description: as §1, §2

MHC/NYESO1-001 tetramer = experiment: Tetramer staining of TCR-RNA-electroporated CD8+ T-cells, MHC/NYESO1-001 control tetramer; assay type: binding, human
From the text: (§4) FIG. 8 show MHC/MAG-003 tetramer or MHC/NYESO1-001 tetramer staining of CD8+ T-cells electroporated with alpha and beta chain RNA of TCRs R7P1 D5, R20P1H7 and R10P2G12 (Table 2), respectively. CD8+ T-cells electroporated with RNA of 1G4 TCR that specifically binds to MHC/NYESO1-001 complex and mock electroporated CD8+ T-cells served as controls.
(§5) T-cell activation was further confirmed using a tetramer staining technique to detect MHC/MAG-003-binding activated cytotoxic T-cells. As shown in FIG. 8 and Table 11, a higher percentage of TCR-expressing CD8+ T-cells were stained positive fluorescent-labeled MHC/MAG-003 tetramer than that with MHC/NYESO1-001 control tetramer or mock control. […] The alpha and beta chains of TCR 1G4 are shown in SEQ ID NO:89 and 90, respectively: […]

MHC/MAG-003 tetramer = MHC/MAG-003 tetramer (Homo sapiens, UniProt P04439+P43358, D140Y/D185E/D98H/E176V/E277Q/G131W/G231S/I119V/I121R/I166T/I218V/N151K/N90K/P208A/P217A/Q86G/Q94H/R138H/R169H); experiment: Tetramer staining of TCR-RNA-electroporated CD8+ T-cells, MHC/MAG-003 tetramer; assay type: binding
From the text: as §4, §5

[4] = tested on: T98G (human glioblastoma cell line, HLA-A2-positive and MAG-003-negative); experiment: IFNγ release, TCR-expressing CD8+ T-cells co-incubated with T98G; assay type: cell-based; settings: Example 4, T98G, compared with effector cell only control
Description: (§6) To determine efficacy of T-cells expressing TCRs described herein, primary CD8+ T-cells electroporated with RNA of the TCRs R7P1 D5, R20P1H7 and R10P2G12 were co-incubated with different human cancer cell lines, e.g., A-375 (human melanoma cell line, which is positive for HLA-A2 and MAG-003 expression), T98G (human glioblastoma cell line, which is HLA-A2-positive and MAG-003-negative), and SK-BR-3 (human breast cancer cell line, which is HLA-A2-negative and MAG-003-negative), followed by IFNγ release assay.

[5] = tested on: A-375 (human melanoma cell line, positive for HLA-A2 and MAG-003 expression); experiment: IFNγ release, TCR-expressing CD8+ T-cells co-incubated with A-375; assay type: cell-based
Description: as §6, §1, §2, §3

MHC/MAG-003 complex = molecular target: T1, MHC/MAG-003 complex (Homo sapiens, UniProt P04439+P43358, D140Y/D185E/D98H/E176V/E277Q/G131W/G231S/I119V/I121R/I166T/I218V/L300P/L318F/N151K/N90K/P208A/P217A/Q86G/Q94H/R138H/R169H/T345S); experiment: IFN-γ release assay: TCR-RNA-electroporated CD8+ T-cells co-incubated with peptide-loaded target cells; assay type: cell-based
T1 construct: endogenous in cells
Description: In another aspect, to obtain T-cells expressing TCRs of the present description, TCR RNAs were synthesized by techniques described in the art, e.g., in vitro transcription systems. The in vitro-synthesized TCR RNAs were then introduced into primary CD8+ T-cells obtained from healthy donors by electroporation to re-express tumor specific TCR-alpha and/or TCR-beta chains.
To determine specificity and affinity of TCRs, the transformed CD8+ T-cells were co-incubated with MAG-003-loaded target cells or with target cells loaded with homologous but unrelated peptide RABGAP1L-001 (SEQ ID NO:91), AXIN1-001 (SEQ ID NO:92), ANO5-001 (SEQ ID NO:93), TPX2-001 (SEQ ID NO:94), SYNE3-001 (SEQ ID NO:95), MIA3-001 (SEQ ID NO:96), HERC4-001 (SEQ ID NO:97), PSME2-001 (SEQ ID NO:98), HEATR5A-001 (SEQ ID NO:99) or CNOT1-003 (SEQ ID NO:100) or control peptide NYESO1-001 (SEQ ID NO:101), followed by IFN-γ release assay. Unloaded target cells and CD8+ T-cells alone served as controls. IFN-γ secretion from CD8+ T-cells is indicative of T-cell activation with cytotoxic activity.
As shown in FIGS. 5-7 all primary CD8+ T-cells transformed with TCRs of the present disclosure, after co-incubation with MAG-003-loaded target cells, released much higher levels of IFN-γ than that stimulated by unrelated peptide-loaded target cells, and the controls.

[6] = tested on: human non-small cell cancer cell line, H1755 (NCI-H1755); experiment: IFNγ release, TCR-expressing CD8+ T-cells co-incubated with H1755; assay type: cell-based; settings: Example 6, NCI-H1755 expressing HLA-A*02 and MAGEA4
Description: as §6, §1, §2, §3

[7] = tested on: SK-BR-3 (human breast cancer cell line, HLA-A2-negative and MAG-003-negative); experiment: IFNγ release, TCR-expressing CD8+ T-cells co-incubated with SK-BR-3; assay type: cell-based; settings: Example 4, SK-BR-3, compared with effector cell only control
Description: as §6

## YLLEHVVRL (listed as Homo sapiens) [p286-1Y2L9L]
[1]
  induction of peptide-specific CTLs: showed the capability to induce specific CTLs
HLA-A*0201 molecule
  binding affinity and stability towards HLA-A*0201 molecule: potent binding affinity and stability

## KVLEHVVRV (listed as Homo sapiens) [MAG-003]
[1]
  induction of peptide-specific CTLs: elicits peptide-specific CTLs
HLA-A*0201 molecule
  binding affinity and stability towards HLA-A*0201 molecule: potent binding affinity and stability

B1: 1G4: control TCR known to bind specifically to MHC/NYESO1-001 complex; alpha and beta chains SEQ ID NO:89 and 90 (protein, listed as Homo sapiens)
alpha: METLLGLLILWLQLQWVSSKQEVTQIPAALSVPEGENLVLNCSFTDSAIYNLQWFRQDPGKGLTSLLLIQSSQREQTSGRLNASLDKSSGRSTLYIAASQPGDSATYLCAVRPTSGGSYIPTFGRGTSLIVHPYIQNPDPAVYQLRDSKSSDKSVCLFTDFDSQTNVSQSKDSDVYITDKTVLDMRSMDFKSNSAVAWSNKSDFACANAFNNSIIPEDTFFPSPESSCDVKLVEKSFETDTNLNFQNLSVIGFRILLLKVAGFNLLMTLRLWSS
beta: MSIGLLCCAALSLLWAGPVNAGVTQTPKFQVLKTGQSMTLQCAQDMNHEYMSWYRQDPGMGLRLIHYSVGAGITDQGEVPNGYNVSRSTTEDFPLRLLSAAPSQTSVYFCASSYVGNTGELFFGEGSRLTVLEDLKNVFPPEVAVFEPSEAEISHTQKATLVCLATGFYPDHVELSWWVNGKEVHSGVSTDPQPLKEQPALNDSRYCLSSRLRVSATFWQNPRNHFRCQVQFYGLSENDEWTQDRAKPVTQIVSAEAWGRADCGFTSESYQQGVLSATILYEILLGKATLYAVLVSALVLMAMVKRKDSRG
[2]
  T-cell activation (IFN-γ release) by healthy tissue cells: not towards the indicated panel of healthy tissue cells
MHC/NYESO1-001 complex
  T-cell activation: readily activated
[3]
  T-cell reactivity (IFN-γ release): reactive

B2: R20P1H7: TCR, alpha chain SEQ ID NO:39 and beta chain SEQ ID NO:47, MAG-003-specific (protein, listed as Homo sapiens)
alpha: MEKMLECAFIVLWLQLGWLSGEDQVTQSPEALRLQEGESSSLNCSYTVSGLRGLFWYRQDPGKGPEFLFTLYSAGEEKEKERLKATLTKKESFLHITAPKPEDSATYLCAVQGENSGYSTLTFGKGTMLLVSPDIQNPDPAVYQLRDSKSSDKSVCLFTDFDSQTNVSQSKDSDVYITDKTVLDMRSMDFKSNSAVAWSNKSDFACANAFNNSIIPEDTFFPSPESSCDVKLVEKSFETDTNLNFQNLSVIGFRILLLKVAGFNLLMTLRLWSS
beta: MGPQLLGYVVLCLLGAGPLEAQVTQNPRYLITVTGKKLTVTCSQNMNHEYMSWYRQDPGLGLRQIYYSMNVEVTDKGDVPEGYKVSRKEKRNFPLILESPSPNQTSLYFCASSLGPGLAAYNEQFFGPGTRLTVLEDLKNVFPPEVAVFEPSEAEISHTQKATLVCLATGFYPDHVELSWWVNGKEVHSGVSTDPQPLKEQPALNDSRYCLSSRLRVSATFWQNPRNHFRCQVQFYGLSENDEWTQDRAKPVTQIVSAEAWGRADCGFTSESYQQGVLSATILYEILLGKATLYAVLVSALVLMAMVKRKDSRG
[2]
  T-cell activation (IFN-γ release) by healthy tissue cells: no activation was observed; also recorded: did not lead to significant TCR-mediated recognition and T-cell activation
MHC/NYESO1-001 tetramer
  % NYESO1-001 TET-positive primary CD8+ T-cells: 0.87%
MHC/MAG-003 tetramer
  % MAG-003 TET-positive primary CD8+ T-cells: 5.73%
[4]
  IFNγ release: basal levels of IFNγ release
[5]; Example 4, A-375, HLA-A2-positive and MAG-003-positive
  IFNγ release: IFNγ release was observed
[5]; Example 6, A-375 expressing HLA-A*02 and MAGEA4
  T-cell activation (IFN-γ release): activity
MHC/MAG-003 complex; CD8+ T-cells electroporated with TCR RNA, co-incubation with MAG-003-loaded target cells
  IFNγ: 200 to 900 pg/mL
MHC/MAG-003 complex; target peptide (MAG-003) titration, IFN-γ release
  EC50: ~10 nM
[6]
  T-cell activation (IFN-γ release): activity
[7]
  IFNγ release: basal levels of IFNγ release
